Where no end group is shown, it is not given here.
Columns and labels:
[1] = target: T1, elastase (Homo sapiens, UniProt P08246); conditions: pathologic conditions associated with neutrophil dysfunction; ref [22]; cited from earlier work
T1 construct: purchased Elastin Products Company, Inc. (Owensville, MO, USA)
T1 sequence (P08246 30-267): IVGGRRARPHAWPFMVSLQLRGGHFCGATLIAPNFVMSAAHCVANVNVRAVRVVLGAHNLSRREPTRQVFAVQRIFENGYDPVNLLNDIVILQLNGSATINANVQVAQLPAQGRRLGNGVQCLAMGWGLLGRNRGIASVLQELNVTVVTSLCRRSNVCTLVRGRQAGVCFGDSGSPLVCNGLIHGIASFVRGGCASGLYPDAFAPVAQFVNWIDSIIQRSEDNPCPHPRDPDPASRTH
Text: Neutrophils also release granule contents containing enzymes such as elastase, proteinase-3, and cathepsin G. Elastase, a particularly inflammatory enzyme, interferes with thrombomodulin function, and cleaves TF pathway inhibitor (TFPI), the physiological inhibitor of the extrinsic pathway. […] Elastase also induces proteinase-activated receptor activation, contributes to cytokine production and processing, inactivates metalloprotease inhibitors, deg ...

[2] = system: inflammation; conditions: ref [14]; cited from earlier work
Text: (§1) In fact, platelets […] ...

[3] = system: NETs formation; parameters: method as in 2 sources, one per row (each row's own in cited_ref): ref [38], [55] = [38]; PMID 20974816; doi:10.1083/jcb.201006052; 38 Papayannopoulos V , Metzler KD , Hakkim A , Zychlinsky A ( 2010 ) Neutrophil elastase and myeloperoxidase regulate the formation of neutrophil extracellular traps . J Cell Biol 191 : 677 – 691 . 20 || [55]; PMID 23635526; doi:10.1159/000348676; 55 Braian C , Hogea V , Stendahl O ( 2013 ) Mycobacterium tuberculosis- induced neutrophil extracellular traps activate human macrophages . J Innate Immun 5 : 591 – 602 . 23635526 10.1159/000348676 PM ||| ref [56] = [56]; PMID 23002442; doi:10.4049/jimmunol.1201167; 56 Farley K , Stolley JM , Zhao P , Cooley J , Remold-O'Donnell E ( 2012 ) A serpinB1 regulatory mechanism is essential for restricting neutrophil extracellular trap generation . J Immunol 189 : 4574; conditions: exogenously added, internalized, translocates into nucleus; ref [56]; cited from earlier work
[4] = system: neutrophils; test: Neutrophil-induced coagulation; format: cell-based, human; conditions: DNAse (Dornase alfa) 4 µg/ml, 1 h, then PMA 50 nM, 3 h
Procedure: A) Platelet aggregation. Washed human platelets were stimulated with elastase only (500 nM, left panel), or cathepsin G only (110 nM, middle tracing), or elastase followed by cathepsin G (right tracing). […] Aggregation response was monitored by turbidimetry using a Lumi-Aggregometer. D) TFPI cleavage. […] After 2 h, reactions were stopped by addition of LDS loading buffer (under reducing conditions, 10 mM DTT), boiled for 5 min, and loaded in 4–12% Nu-PAGE gel. Gels were Coomassie Blue-stained. E) Neutrophil-induced coagulation. […] Fifty µl of this suspension was added to 50 µl of plasma, and reactions were started by addition of CaCl2 (12.5 mM, final concentration)(*, p<0.05).
(§2) Whole blood (5 mL collected in 0.5 mL of 3.2% sodium citrate) from healthy donors was diluted in an equal volume of PBS, layered over 5 mL of HISTOPAQUE solution (10771, Sigma Aldrich), and centrifuged for 40 min, at 400×g, at room temperature. The lower interphase having granulocytes was collected and transferred to a 15-ml Falcon tube and resuspended in 10 ml ammonium chloride lysis buffer (1.7 M NH4Cl, […], 1 mM EDTA) to lyse red blood cells. Lysis was carried out twice followed by centrifugation for 10 min at 400×g. Neutrophils were washed with PBS and resuspended at 1×10^6 cells/mL in high glucose DMEM (GIBCO). Neutrophils were kept on ice. […]

[5] = system: neutrophils; test: NETs formation; format: cell-based, human; conditions: DNAse (Dornase alfa) 4 µg/ml; not shown
Procedure: Left panel, non-activated neutrophil (no PMA). Formation of NETs was visualized under confocal microscopy, using antibody against citrullinated histone. Representative experiment is shown (4 different donors). B) Quantification. Performed as described in Methods.
as §2, with “400×g.” for “400×g. Neutrophils were washed with PBS and resuspended at 1×10^6 cells/mL in high glucose DMEM (GIBCO). Neutrophils were kept on ice.”
Cells were fixed with 500 µl of 4% paraformaldehyde (final concentrations) for 10 min, washed 3 times with PBS and incubated for 10 min with blocking solution (PBS, 10%FBS, 5 mg/ml BSA). […] NETs were quantified according to Farley et al. Briefly, NETs were identified on digitalized images as Hoechst-positive fibrils emanating from cells with an overall length at least twice as long as the cell diameter and were counted for at least two fields of view per variable. Results were expressed as the percentage of NETs/total number of granulocytes.

[6] = system: baboons; conditions: NETs-related thrombosis, DNase treatment; ref [19]; cited from earlier work
Text: as §1

Molecule: Elafin: potent elastase inhibitor purified from bronchial secretions (AQEPVKGPVSTKPGSCPIILIRCAMLNPPNRCLKDTDCPGIKKCCEGSCGMACFVPQ; ends and bridges not checked; cysteine pairing not given here; UniProt P19957 61-117, looked up)
- clinical trial results [1]: mixed results
- inflammation in several in vivo models [2]: blocks inflammation

B1: serpin B1: exogenously added elastase inhibitor (protein, UniProt P30740 1-379, looked up)
Leukocyte elastase inhibitor: MEQLSSANTRFALDLFLALSENNPAGNIFISPFSISSAMAMVFLGTRGNTAAQLSKTFHFNTVEEVHSRFQSLNADINKRGASYILKLANRLYGEKTYNFLPEFLVSTQKTYGADLASVDFQHASEDARKTINQWVKGQTEGKIPELLASGMVDNMTKLVLVNAIYFKGNWKDKFMKEATTNAPFRLNKKDRKTVKMMYQKKKFAYGYIEDLKCRVLELPYQGEELSMVILLPDDIEDESTGLKKIEEQLTLEKLHEWTKPENLDFIEVNVSLPRFKLEESYTLNSDLARLGVQDLFNSSKADLSGMSGARDIFISKIVHKSFVEVNEEGTEAAAATAGIATFCMLMPEENFTADHPFLFFIRHNSSGSILFLGRFSSP
- NETs formation [3]: inhibits NETs formation

B2: DNAse: DNAse (Dornase alfa, Genentech Inc.) (protein, UniProt P24855 23-282, looked up)
Deoxyribonuclease-1: LKIAAFNIQTFGETKMSNATLVSYIVQILSRYDIALVQEVRDSHLTAVGKLLDNLNQDAPDTYHYVVSEPLGRNSYKERYLFVYRPDQVSAVDSYYYDDGCEPCGNDTFNREPAIVRFFSRFTEVREFAIVPLHAAPGDAVAEIDALYDVYLDVQEKWGLEDVMLMGDFNAGCSYVRPSQWSSIRLWTSPTFQWLIPDSADTTATPTHCAYDRIVVAGMLLRGAVVPDSALPFNFQAAYGLSDQLAQAISDHYPVEVMLK
- pro-coagulant activity of PMA-activated neutrophils [4]: reversed
- NETs-associated fluorescence signal [5]: completely abrogated
- thrombosis in baboons [6]: prevented

From PMC4161438 (PLoS Pathogens, 2014)
